B1: KB1753-mScarlet-GSGGSGG-hRas (protein)
chain: MSSRGYYHGIWVGEEGRLSRVSKGEAVIKEFMRFKVHMEGSMNGHEFEIEGEGEGRPYEGTQTAKLKVTKGGPLPFSWDILSPQFMYGSRAFTKHPADIPDYYKQSFPEGFKWERVMNFEDGGAVTVTQDTSLEDGTLIYKVKLRGTNFPPDGPVMQKKTMGWEASTERLYPEDGVLKGDIKMALRLKDGGRYLADFKTTYKAKKPVQMPGAYNVDRKLDITSHNEDYTVVEQYERSEGRHSTGGMDELYKGSGGSGGCMSCKCVLS
modifications: KB1753-mScarlet-GSGGSGG-hRas
notes: Protein probe: hRas fragment anchor, GSGGSGG linker, mScarlet, peptide KB1753
B2: KB1753-HALO-GSGGSGG-hRas (protein)
chain: MSSRGYYHGIWVGEEGRLSRAEIGTGFPFDPHYVEVLGERMHYVDVGPRDGTPVLFLHGNPTSSYVWRNIIPHVAPTHRCIAPDLIGMGKSDKPDLGYFFDDHVRFMDAFIEALGLEEVVLVIHDWGSALGFHWAKRNPERVKGIAFMEFIRPIPTWDEWPEFARETFQAFRTTDVGRKLIIDQNVFIEGTLPMGVVRPLTEVEMDHYREPFLNPVDREPLWRFPNELPIAGEPANIVALVEEYMDWLHQSPVPKLLFWGTPGVLIPPAEAARLAKSLPNCKAVDIGPGLNLLQEDNPDLIGSEIARWLSTLEISGGSGGSGGCMSCKCVLS
modifications: HALO labelled with JF-549; KB1753-HALO-GSGGSGG-hRas
notes: Protein probe: hRas fragment anchor, GSGGSGG linker, HALO fluorogenic protein (labelled with JF-549), peptide KB1753
B3: GAP43-SSGSSGTG-HALO-GRK2ct (protein)
chain: MLCCMRRTKQVEKNDEDQNSSGSSGTGAEIGTGFPFDPHYVEVLGERMHYVDVGPRDGTPVLFLHGNPTSSYVWRNIIPHVAPTHRCIAPDLIGMGKSDKPDLGYFFDDHVRFMDAFIEALGLEEVVLVIHDWGSALGFHWAKRNPERVKGIAFMEFIRPIPTWDEWPEFARETFQAFRTTDVGRKLIIDQNVFIEGTLPMGVVRPLTEVEMDHYREPFLNPVDREPLWRFPNELPIAGEPANIVALVEEYMDWLHQSPVPKLLFWGTPGVLIPPAEAARLAKSLPNCKAVDIGPGLNLLQEDNPDLIGSEIARWLSTLEISGGSSRNFPLVISERWQQEVAETVYEAVNADTDKIEARKRAKNKQLGHEEDYALGRDCIVHGYMLKLGNPFLTQWQRRYFYLFPNRLEWRGEGESRQSLLTMEQIVSVEETQIKDKKCILLRIKGGKQFVLQCESDPEFVQWKKELTETFMEAQRLLRRAPKFLNKSRSAVVELSKPPLCHRNSNGLGSRG
modifications: HALO labelled with JF-549; GAP43-SSGSSGTG-HALO-GRK2ct
notes: Protein probe: GAP43 fragment anchor, SSGSSGTG linker, HALO (labelled with JF-549), GRK2 fragment with PH domain
B4: KB1753-SNAP-GSGGSGG-hRas (protein)
chain: MSSRGYYHGIWVGEEGRLSRDKDCEMKRTTLDSPLGKLELSGCEQGLHRIIFLGKGTSAADAVEVPAPAAVLGGPEPLMQATAWLNAYFHQPEAIEEFPVPALHHPVFQQESFTRQVLWKLLKVVKFGEVISYSHLAALAGNPAATAAVKTALSGNPVPILIPCHRVVQGDLDVGGYEGGLAVKEWLLAHEGHRLGKPGLGSGGSGGCMSCKCVLS
modifications: SNAP labelled with SNAP Cell 430; KB1753-SNAP-GSGGSGG-hRas
notes: Protein probe: hRas fragment anchor, GSGGSGG linker, SNAP fluorogenic protein (labelled with SNAP Cell 430), peptide KB1753

What was measured:
Format in all cases: cell-based
[1] = biological target: T1, activated form of the G-protein Gαi1 (Gαi1(Q204L)) (Homo sapiens, UniProt P63096, Q204L); assay: Polarization microscopy of probe in HEK293 cells, with or without cotransfected constitutively activated Gαi1(Q204L); details: cotransfection of Gαi1(Q204L) plasmid, excitation polarization resolved single-photon laser scanning confocal microscopy
T1 construct: expressed in transfected cells; host or cells: HEK293
Text: A protein (SEQ ID NO:5) that includes as an anchoring moiety a fragment of the protein h-Ras, a flexible peptide linker (amino acid sequence GSGGSGG (SEQ ID NO:1)), a monomeric enhanced green fluorescent protein (meGFP) as a fluorescent moiety, and an affinity binding peptide KB1753 known to bind the activated form of the G-protein Gαi1 (Johnston C A & al., Structure. 2005 Jul. 1; 13(7):1069-80), was encoded into a DNA sequence (SEQ ID NO:6) and cloned into a mammalian expression vector (pcDNA3.1(+)) under the control of the cytomegalovirus (CMV) promoter. The resulting DNA encoding the probe of invention was transfected into HEK293 cells either alone, or along with DNA encoding the target protein of the probe.
Prior to microscopy observations, mammalian cells (HEK293) were cultured at 37° C. under an atmosphere of 95% air, 5% CO2, in Dulbecco's modified Eagle's medium with Glutamax I and high glucose (Life Technologies), supplemented with 10% fetal bovine serum. […]
The cells were observed by excitation polarization resolved single-photon laser scanning confocal microscopy, by excitation polarization resolved two-photon laser scanning microscopy, by excitation polarization resolved single-photon wide-field fluorescence microscopy, and by fluorescence polarization resolved single-photon laser scanning confocal microscopy.
(§1) In excitation polarization resolved single-photon laser scanning confocal microscopy, the cells (in the multi-well cover slip) were observed using a single-photon laser scanning confocal microscope Olympus FV1200, modified for excitation-polarization resolved microscopy. […] Fluorescence of wavelengths in the range of 510-610 nm was separated from the excitation light by a long-pass dichroic mirror (DM405/488, Olympus, Japan), diffractive grating, and an adjustable slit, and detected by a photomultiplier. […]
(§2) The resulting images were deconvolved and quantitatively analyzed by following published procedures (Bondar A & al., Communications Biology. 2021 Feb. 12; 4(1):1-2.) that rely on publicly available software tools. […]

[2] = biological target: T2, activated form of Gαi1 (Homo sapiens, UniProt P63096); assay: Polarization microscopy of probe in HEK293 cells, Gαi1 activated through the α2-adrenergic receptor by norepinephrine; details: HEK293 cells cotransfected with Gαi1, Gβ1, Gγ2 and α2-adrenergic receptor; 10 μM norepinephrine; excitation polarization resolved single-photon confocal microscopy
T2 construct: expressed in transfected cells; host or cells: HEK293
Method: (§3) Prior to microscopy observations, mammalian cells (HEK293) were cultured at 37° C. under an atmosphere of 95% air, 5% CO2, in Dulbecco's modified Eagle's medium with Glutamax I and high glucose (Life Technologies), supplemented with 10% fetal bovine serum. Cells were plated on 8-chamber microscopy slides (p-Slides, Ibidi GmbH, Germany). Transfections were carried out using 0.2 μg of plasmid DNA and Lipofectamine 2000 (Life Technologies), according to the protocol of the manufacturer. In cotransfections, 0.2 μg of each of the plasmids were used. Microscopy experiments were carried out 48 h after transfection. […]
as §1, §2

[3] = biological target: T3, GβGγ dimer (Homo sapiens, UniProt P59768+P62873); assay: Polarization microscopy of probe in HEK293 cells, with or without cotransfected GβGγ dimer; details: cotransfection of plasmids encoding the, excitation polarization resolved single-photon confocal microscopy
T3 construct: expressed in transfected cells; host or cells: HEK293
Method: as §3, §1, §2

T1 sequence (P63096 whole entry Q204L): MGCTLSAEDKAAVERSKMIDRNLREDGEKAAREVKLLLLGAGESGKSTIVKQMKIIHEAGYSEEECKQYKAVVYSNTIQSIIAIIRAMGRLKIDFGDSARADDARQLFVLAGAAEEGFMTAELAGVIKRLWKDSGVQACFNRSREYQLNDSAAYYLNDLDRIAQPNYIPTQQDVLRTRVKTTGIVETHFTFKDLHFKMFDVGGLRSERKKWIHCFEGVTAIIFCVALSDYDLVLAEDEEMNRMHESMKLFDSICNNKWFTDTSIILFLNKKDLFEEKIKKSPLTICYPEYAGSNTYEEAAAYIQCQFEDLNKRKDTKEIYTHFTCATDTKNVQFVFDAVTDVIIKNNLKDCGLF
T2 sequence (P63096 whole entry): as the sequence (P63096 whole entry Q204L) above, with L204Q counted along it
T3 sequence (P62873 2-340 limits assumed): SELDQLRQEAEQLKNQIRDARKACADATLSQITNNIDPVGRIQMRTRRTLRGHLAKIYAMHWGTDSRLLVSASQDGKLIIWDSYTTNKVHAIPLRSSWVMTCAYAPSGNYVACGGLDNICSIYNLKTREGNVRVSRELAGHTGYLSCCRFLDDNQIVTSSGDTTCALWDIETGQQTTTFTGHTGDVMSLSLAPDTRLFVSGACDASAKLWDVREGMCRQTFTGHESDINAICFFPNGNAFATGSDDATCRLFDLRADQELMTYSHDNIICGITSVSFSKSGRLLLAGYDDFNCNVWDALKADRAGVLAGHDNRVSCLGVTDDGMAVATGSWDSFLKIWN
T3 sequence (P59768 2-68 limits assumed): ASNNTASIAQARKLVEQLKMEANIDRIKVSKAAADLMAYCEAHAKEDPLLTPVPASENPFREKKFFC

Molecule | linear dichroism of the fluorescent moiety of the probe in presence of its target molecule compared with absence [1] | linear dichroism of the fluorescent moiety of the probe in presence of activated Gαi1 compared with absence [2] | linear dichroism of the fluorescent moiety of the probe in presence of its target molecule compared with absence [3]
B1 | statistically significantly higher | statistically significantly higher | –
B2 | statistically significantly lower | statistically significantly lower | –
B3 | – | – | statistically significantly higher
B4 | statistically significantly higher | – | –
